In patent US20240343803A1 (SHANDONG SIMCERE BIOPHARMACEUTICAL, published 2024):
Each block holds one binder with its values, some of them ahead of it.

Assays:
[1] = target: T1, human PVRIG-mFc protein (Acro, PVG-H5253) (human, UniProt Q6DKI7 41-171, limits assumed); test: competition FACS; blocked: human PVRIG-mFc binding to CHO-K1-CD112 cells
T1 construct: bought reagent; also called PVRIG-ECD-mFc
T1 sequence (looked up): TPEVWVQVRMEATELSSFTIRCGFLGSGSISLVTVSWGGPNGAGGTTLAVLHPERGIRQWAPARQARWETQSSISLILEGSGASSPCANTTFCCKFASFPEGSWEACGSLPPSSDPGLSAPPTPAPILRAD
Experimental: After incubation, the cells were added with staining buffer (2% FBS+PBS) to stop staining, centrifuged at 350×g to remove the supernatant, washed twice and resuspended with staining buffer to a density of 1×10⁶ cells/mL. The cells were plated into a 96-well plate (50 μL of cell suspension per well) for further use. A working solution of human PVRIG-mFc protein (Acro, PVG-H5253) prepared with staining buffer, 1 μg/mL (four-fold concentration), was added into a 96-well plate (50 μL PVRIG-mFc working solution per well). […] The diluted antibodies were added to the well containing 50 μL of PVRIG-mFc. The plate was placed on a microplate shaker at 400 rpm for 1 minute to fully mix the antibodies and PVRIG-mFc proteins, and then incubated at 4° C. for 30 minutes. After the incubation, the cell suspension prepared above (100 μL) was added into the wells, gently mixed with the pipette tip and incubated at 4° C. for 30 minutes. After the incubation, the cells were washed twice with staining buffer (200 μL per well) and centrifuged at 350×g for 5 minutes to discard the supernatant. The PE goat anti-mouse IgG Fc antibody (Biolegend, 405337) was diluted 250 times with staining buffer, added into the washed wells (100 μL per well), mixed well, and stained at 4° C. for 30 minutes. After staining, the cells were washed twice with staining buffer, finally resuspended with 200 μL staining buffer and analyzed by flow cytometry (BD, Canto II). The weaker the fluorescence signal, the stronger the ability of the antibodies blocks the binding of CHO-K1 human CD112 cells to the PVRIG-mFc protein. An antibody binding curve was drawn with concentration of antibodies as the abscissa and the corresponding Mean Fluorescence Intensity (MFI) as the ordinate. The IC50 value of the antibodies and the AUC value of the binding curve were calculated by using a Four Parameter Logistic Fit (GraphPadPrism9). The smaller the IC50 value and AUC value, the stronger the ability of the antibodies competes with CHO-K1-CD112 cells to bind to human PVRIG-mFc protein.

[2] = target: T2, human PVRIG-his (AcroBiosystems, Cat NO. PVG-H52H4) (human, UniProt Q6DKI7 41-171, limits assumed); test: competition ELISA on coated human PVRIG-his; blocked ligand human PVRL2-mFc
T2 construct: treated as the same protein; also called human PVRIG-His protein; Human PVRIG-His, Acro C227P1-9ARF1-T4
T2 sequence (looked up): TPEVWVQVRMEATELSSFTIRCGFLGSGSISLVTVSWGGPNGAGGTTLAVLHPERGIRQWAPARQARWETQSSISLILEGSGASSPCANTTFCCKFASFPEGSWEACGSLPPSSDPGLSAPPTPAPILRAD
Experimental: (§1) The ELISA plate was pre-coated with 100 μL/well of 0.5 μg/mL human PVRIG-his protein (AcroBiosystems, Cat NO. PVG-H52H4). The tested anti-PVRIG antibodies were diluted from the highest concentration of 16 nM (two-fold concentration). The diluted antibodies were mixed with 18 ng/ml human PVRL2-mFc (AcroBiosystems, Cat NO. CD2-H5257) in equal volume, added into the plate (100 μL/well), and incubated with shaking at room temperature for 2.0 hours. […] A HRP substrate, TMB (Thermo, Cat NO. 34029) was added into wells after washing the plate again for color development. After adding a termination solution to terminate the reaction, the absorbance value was read by a microplate reader (MD i3×). An inhibiting curve was drawn with concentration of antibodies as the abscissa and the corresponding OD value as the ordinate. The IC50 value was calculated by using a Four Parameter Logistic Fit (GraphPadPrism9). The smaller the IC50 value, the stronger the ability of the antibodies inhibits the binding between PVRIG and PVRL2. The positive and negative controls are the same as in Example 8.

[3] = target: T3, human PVRIG-his (AcroBiosystems, Cat NO. PVG-H52H4) (human, UniProt Q6DKI7 41-171, limits assumed); test: ELISA, antigen coated
T3 construct: also called human PVRIG protein
T3 sequence (looked up): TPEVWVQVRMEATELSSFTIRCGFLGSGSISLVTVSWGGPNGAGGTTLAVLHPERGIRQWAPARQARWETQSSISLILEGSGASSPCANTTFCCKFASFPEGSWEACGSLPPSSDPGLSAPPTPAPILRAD
Experimental: (§2) The ELISA plate was pre-coated with 100 μL/well of 0.5 μg/mL human PVRIG-his (AcroBiosystems, Cat NO. PVG-H52H4) or cynomolgus monkey PVRIG (Novoprotein, Cat NO. C09B). The tested anti-PVRIG humanized antibodies were serially diluted (initial concentration 3 nM, 3-fold serial dilution), added into the plate (100 μL/well) and incubated with shaking at room temperature for 1.5 hours. […] A HRP substrate, TMB (Thermo, Cat NO. 34029) was added into wells after washing the plate again for color development. After adding a termination solution to terminate the reaction, the absorbance value was read by a microplate reader (MD i3×). An antibody binding curve was drawn with concentration of antibodies as the abscissa and the corresponding OD value as the ordinate. The EC50 value was calculated by using a Four Parameter Logistic Fit (GraphPadPrism9). The smaller the EC50 value, the stronger the ability of the antibodies binds to human or cynomolgus monkey PVRIG. The binding effect of the humanized antibodies was normalized to the corresponding parental antibodies. If the percentage value is higher than 100%, the binding effect of humanized antibodies is better than that of parental antibody.

[4] = target: T4, cynomolgus monkey PVRIG (Novoprotein, Cat NO. C09B) (cynomolgus monkey, UniProt A0A2K5WVV8 41-171); test: ELISA, antigen coated
T4 construct: also called cynomolgus monkey PVRIG protein
T4 sequence: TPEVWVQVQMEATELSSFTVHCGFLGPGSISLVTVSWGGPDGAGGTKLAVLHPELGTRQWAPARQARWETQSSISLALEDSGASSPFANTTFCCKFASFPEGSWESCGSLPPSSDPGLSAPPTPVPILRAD
Experimental: as §2

[5] = target: T5, human PVRIG on FlpinCHO-PVRIG cells (human, UniProt Q6DKI7 41-326); test: FACS, FlpinCHO-PVRIG cells
T5 construct: whole, on cells
T5 sequence (looked up): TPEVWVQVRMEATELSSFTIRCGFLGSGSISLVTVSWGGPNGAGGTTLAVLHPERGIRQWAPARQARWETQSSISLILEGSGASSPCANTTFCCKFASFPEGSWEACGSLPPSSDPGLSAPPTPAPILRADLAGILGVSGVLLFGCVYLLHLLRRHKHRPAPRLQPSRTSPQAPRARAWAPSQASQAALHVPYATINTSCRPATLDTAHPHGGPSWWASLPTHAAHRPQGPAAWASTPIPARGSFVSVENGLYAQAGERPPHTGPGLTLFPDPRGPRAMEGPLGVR
Experimental: The Ham's F12 (Gibico, 21127-022) complete medium containing 10% FBS was then added to terminate the digestion and acquire cell suspension. After counting with a cell counter (Beckman Coulter, Vi-CELL), an appropriate amount of cell suspension was centrifuged at 350×g to remove the supernatant, washed twice with PBS, stained with Zombie violet (Biolegend, 423114) and incubated at room temperature for 20 minutes. After incubation, the cells were added with staining buffer (2% FBS+PBS) to stop staining, centrifuged at 350×g to remove the supernatant, washed twice and resuspended with staining buffer to a density of 2×10⁶ cells/mL. The cells were plated into a 96-well plate (50 μL of cell suspension per well) for further use. The antibodies were diluted from the highest concentration of 46 nM (two-fold concentration) with staining buffer by 3.3-fold serial dilution. The diluted antibodies were added to the well containing 50 μL of cell suspension. The plate was placed on a microplate shaker at 400 rpm for 1 minute to fully mix the antibodies and cells, and then incubated at 4° C. for 30 minutes. After the incubation, the cells were washed twice with staining buffer (200 μL per well) and centrifuged at 350×g for 5 minutes to discard the supernatant. The PE goat anti-human IgG Fc antibody (ebioscience, 12-4998-82) was diluted 250 times with staining buffer, added into the washed wells (100 μL per well), mixed well, and stained at 4° C. for 30 minutes. After staining, the cells were washed twice with staining buffer, finally resuspended with 200 μL staining buffer and analyzed by flow cytometry (BD, Canto II). The stronger the signal, the stronger the ability of the antibodies binds to PVRIG. An antibody binding curve was drawn with concentration of antibodies as the abscissa and the corresponding Mean Fluorescence Intensity (MFI) as the ordinate. The AUC value of the curve was calculated by using a Four Parameter Logistic Fit (GraphPadPrism9). The stronger the AUC value, the stronger the ability of the antibodies binds to FlpinCHO-PVRIG and FlpinCHO-cyno PVRIG. […] The binding activity of the antibodies was normalized to the positive control COM701-hIgG1 and SRF813-hIgG1.

[6] = target: T3, human PVRIG-his (AcroBiosystems, Cat …); test: competition ELISA, PVRIG-His coated, competitor human PVRL2-mFc; parameters: AUC: unit not given here
Experimental: as §1
The methods refer to Example 11. The inhibiting activity of the humanized antibodies was normalized to the corresponding parental antibodies. If the percentage value is higher than 100%, the inhibiting effect of humanized antibodies is better than that of parental antibodies.

[7] = target: T3, human PVRIG-his (AcroBiosystems, Cat …); test: SPR (BIAcore), antibody captured on Protein A chip, human PVRIG-His analyte
Experimental: Biacore was used to detect the specific binding between anti-PVRIG antibody and human PVRIG protein. Protein A chip was used in the BIAcore assay. The time required for the chip to capture the diluted antibody and saturate the binding antigen to reach Rₘₐₓ (Maximum binding capacity, 50 RU) was measured by manual run. […] The affinity of antibody for antigen was measured by multi-cycle kinetics. In each cycle, the antibodies were injected prior to the injection of gradient concentraions of PVRIG proteins allowing the occurrence of antibody-antigen association and dissociation After each cycle, the Protein A chip was regenerated by Glycine, pH 1.5 (to remove the proteins on the chip). The affinity of antibody for antigen was calculated by BIAcore T200 analysis software.
The methods refer to Example 10.

B2: PVRIG-A15 (VHH)
VHH: QVQLVESGGGLVQAGGSLRLSCVASGRTFSANTMAWFRQAPGKEREFVAYTRWTDDNTDYASYADFVKGRFTAFRDNTRNTMYLQMNRLRPEDTAVYYCAAATTRGTYYSAGDYNSWGQGTQVTVSS
notes: tested as VHH-hinge-CH2-CH3 (human IgG1-Fc); not shown: human IgG1 hinge-CH2-CH3
IC50 (read off the curve) [1]: ~1 nM
IC50 (read off the curve) [2]: ~2 nM

B3: PVRIG-A30 (VHH)
VHH: QVQLVESGGGLVQPGGSLRLSCAASGRTDSMNVMGWFRRAPGKEREFVARIKWNGDTTYTAYADFLKGRFTLYGAVARNRVYLQMNSLQPEDTAVYYCAAGEVSGSSYSPDYGMHYWGKGTLVTVSS
notes: as for B2
IC50 (read off the curve) [1]: ~1 nM
IC50 (read off the curve) [2]: ~2 nM

B4: PVRIG-A60 (VHH)
VHH: QVQLVESGGGLVQSGGSLRLSCAASGRTRSMYVMGWFRQAPGKEREFVGRIKWSGDTTYTSYADFVKGRFTLYGNQARNTVYLQMNSLKPEDAAVYYCNLRRLDGVNYWGKGTLVTVSS
notes: as for B2
IC50 (read off the curve) [1]: ~1 nM
IC50 (read off the curve) [2]: ~1 nM

B5: PVRIG-A105-H3a (Fc fusion)
chain: EVQLVESGGGLVQPGGSLRLSCAASGRTFDRHTMTWFRQAPGKEREFVATASRIPGDTYYVDSVKGRFTISRDNAKNSVYLQMNSLRAEDTAVYYCAATSAYSSEVDSYEKGSWYDNWGQGTMVTVSS
notes: humanized variant of PVRIG-A105; also called A105.VH3a; not shown: constant part not restated for the humanized forms; parents are VHH-hinge-CH2-CH3 of human IgG1; detected by anti-human
% relative activity parental antibody/tested antibody [3]: 0.99%
EC50 [3]: 7.41 nM
% relative activity parental antibody/tested antibody [4]: 2.53%
EC50 [4]: 1.27 nM
AUC % to COM701-hIgG1 [5]: 15.9%
AUC % to SRF813-hIgG1 [5]: 23.9%
AUC % to parental Ab [5]: 12.8%
% relative activity (AUC) parental antibody/test antibody [6]: 47.2%
AUC [6]: 5.37

B7: PVRIG-A105-H5 (Fc fusion)
chain: EVQLVESGGGLVQPGGSLRLSCAASGRTFDRHTMTWFRQAPGKEREFVATASRIPGDTYYVDSVKGRFTISRDNAKNSLYLQMNSLRAEDTAVYYCAATSAYCSEVDCYEKGSWYDNWGQGIQVTVSS
notes: humanized variant of PVRIG-A105; also called A105.VH5; not shown: constant part not restated for the humanized forms; parents are VHH-hinge-CH2-CH3 of human IgG1; detected by anti-human
EC50 [3]: 0.0678 nM
EC50 [4]: 0.0377 nM
% relative activity (IC50) parental antibody/test antibody [6]: 114%
IC50 [6]: 0.647 nM
Kd [7]: 0.818 nM
koff [7]: 0.00091 s⁻¹
kon [7]: 1.11e+06 M⁻¹ s⁻¹

B8: PVRIG-A75 (VHH)
VHH: QLQLVESGGGLVQSGGSLRLSCAASGRTRSMYVMGWFRQAPGKEREFVGRIKWSGDTTYTSYADFVKGRFTLYGNQARNTVYLQMNSLKPEDTAVYSCAASKFPVSGVPEHYDYWGQGTQVTVSS
notes: as for B2
IC50 (read off the curve) [1]: ~0.8 nM
IC50 (read off the curve) [2]: ~1 nM

Results, then the binder that gave them:

IC50 (read off the curve) [1]: ~1 nM
IC50 (read off the curve) [2]: ~1 nM
B1: PVRIG-A113 (VHH)
VHH: QLQLVESGGGLVQSGGSLRLSCAASGRTRSMYVMGWFRQAPGKEREFVGRIKWSGDTTYTSYADFVKGRFTLYGNQARNTVYLQMNSLKPEDTAVYYCAALPSDYDYRAASYGVDYWGKGTLVTVSS
notes: as for B2

EC50 [3]: 0.0515 nM
EC50 [4]: 0.0343 nM
% relative activity (IC50) parental antibody/test antibody [6]: 128%
IC50 [6]: 0.577 nM
Kd [7]: 0.693 nM
koff [7]: 0.00092 s⁻¹
kon [7]: 1.33e+06 M⁻¹ s⁻¹
B6: PVRIG-A105-H2 (Fc fusion)
chain: EVQLVESGGGLVQPGGSLRLSCAASGRTFDRHTMTWFRQAPGKEREFVATASRIPGDTYYVDSVKGRFTISRDNAKNSLYLQMNSLRAEDTAVYYCAATSAYCSEVDCYEKGSWYDNWGQGTMVTVSS
notes: humanized variant of PVRIG-A105; also called A105 VH2; not shown: constant part not restated for the humanized forms; parents are VHH-hinge-CH2-CH3 of human IgG1; detected by anti-human
